From PMC7065885

Columns and labels:
[1] = target: murine CD11b I-domain (mouse); test: SPR
[2] = target: human CD11b I-domain (human); test: SPR

murine CD11b I-domain (mouse), sequence (P05555 17-1153): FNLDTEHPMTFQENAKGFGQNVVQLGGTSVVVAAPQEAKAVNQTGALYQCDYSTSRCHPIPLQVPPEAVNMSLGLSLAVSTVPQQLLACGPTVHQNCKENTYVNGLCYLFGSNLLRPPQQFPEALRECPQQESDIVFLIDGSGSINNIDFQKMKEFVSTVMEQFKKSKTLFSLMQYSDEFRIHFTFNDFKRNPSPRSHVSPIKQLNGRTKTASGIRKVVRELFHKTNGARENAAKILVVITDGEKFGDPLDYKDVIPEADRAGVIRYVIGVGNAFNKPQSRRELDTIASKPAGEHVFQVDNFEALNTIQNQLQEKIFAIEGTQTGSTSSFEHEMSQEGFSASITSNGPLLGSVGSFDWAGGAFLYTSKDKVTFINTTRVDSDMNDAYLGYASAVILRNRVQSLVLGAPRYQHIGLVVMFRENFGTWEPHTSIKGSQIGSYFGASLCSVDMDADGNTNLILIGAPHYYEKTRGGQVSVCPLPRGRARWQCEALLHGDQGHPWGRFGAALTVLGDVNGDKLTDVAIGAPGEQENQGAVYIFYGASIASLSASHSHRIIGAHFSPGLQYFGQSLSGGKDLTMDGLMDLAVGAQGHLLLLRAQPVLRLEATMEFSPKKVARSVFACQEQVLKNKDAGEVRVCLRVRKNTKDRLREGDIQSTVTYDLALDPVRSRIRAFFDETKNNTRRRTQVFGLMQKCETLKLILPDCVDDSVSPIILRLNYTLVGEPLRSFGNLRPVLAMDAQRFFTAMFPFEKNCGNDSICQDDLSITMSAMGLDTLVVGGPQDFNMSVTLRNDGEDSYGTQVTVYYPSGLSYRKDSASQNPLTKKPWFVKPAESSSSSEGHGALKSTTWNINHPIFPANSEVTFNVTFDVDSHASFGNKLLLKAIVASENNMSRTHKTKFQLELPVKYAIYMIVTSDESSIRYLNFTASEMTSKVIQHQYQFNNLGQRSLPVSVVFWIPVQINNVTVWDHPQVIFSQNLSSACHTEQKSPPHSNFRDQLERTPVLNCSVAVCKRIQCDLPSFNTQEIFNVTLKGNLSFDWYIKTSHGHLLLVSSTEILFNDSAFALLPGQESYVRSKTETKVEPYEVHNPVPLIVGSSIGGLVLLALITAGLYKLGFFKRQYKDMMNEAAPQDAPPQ

Substance: LukAB (complex)
- Kd [1]: 247 µM
- Kd [2]: 0.0393 µM
